{"source": "the supplement of paper PMC11316812", "key": {"MCF7": {"system": "MCF7", "assay": "percentage of EdU-negative (G0-arrested) nuclei per well, 72 h; higher = more G0 arrest", "conditions": "reference: sequence is the full UniProt precursor, the tested protein was the secreted form or ectodomain"}, "hTERT-HMEC": {"system": "hTERT-HMEC", "assay": "percentage of EdU-negative (G0-arrested) nuclei per well, 72 h; higher = more G0 arrest", "conditions": "reference: sequence is the full UniProt precursor, the tested protein was the secreted form or ectodomain"}, "[1]": {"conditions": "protein concentration 0.026505 µM"}, "[2]": {"conditions": "protein concentration 0.26505 µM"}, "[3]": {"conditions": "protein concentration 0.02859 µM"}, "[4]": {"conditions": "protein concentration 0.2859 µM"}, "[5]": {"conditions": "protein concentration 0.01825 µM"}, "[6]": {"conditions": "protein concentration 0.1825 µM"}, "[7]": {"conditions": "protein concentration 0.0225 µM"}, "[8]": {"conditions": "protein concentration 0.02425 µM"}, "[9]": {"conditions": "protein concentration 0.2425 µM"}, "[10]": {"conditions": "protein concentration 0.03125 µM"}, "[11]": {"conditions": "protein concentration 0.3125 µM"}, "[12]": {"conditions": "protein concentration 0.0165 µM"}}, "note": "± gives the standard deviation of the averaged measurements.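 Note: secreted proteins added to cultured cells, EdU pulse at the end, nuclei found by Hoechst imaging, EdU status from nuclear versus surrounding ring intensity ratio, PBS as neutral control.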", "data": [{"sequence": "MKSLVLLLCLAQLWGCHSAPHGPGLIYRQPNCDDPETEEAALVAIDYINQNLPWGYKHTLNQIDEVKVWPQQPSGELFEIEIDTLETTCHVLDPTPVARCSVRQLKEHAVEGDCDFQLLKLDGKFSVVYAKCDSSPDSAEDVRKVCQDCPLLAPLNDTRVVHAAKAALAAFNAQNNGSNFQLEEISRAQLVPLPPSTYVEFTVSGTDCVAKEATEAAKCNLLAEKQYGFCKATLSEKLGGAEVAVTCMVFQTQPVSSQPQPEGANEAVPTPVVDPDAPPSPPLGAPGLPPAGSPPDSHVLLAAPPGHQLHRAHYDLRHTFMGVVSLGSPSGEVSHPRKTRTVVQPSVGAAAGPVVPPCPGRIRHFKV", "values": [{"measurement": "percentage of EdU-negative", "setting": "MCF7; [1]", "result": "26.1 ± 1.4", "unit": "%"}, {"measurement": "percentage of EdU-negative", "setting": "MCF7; [2]", "result": "26.2 ± 2.4", "unit": "%"}, {"measurement": "percentage of EdU-negative", "setting": "hTERT-HMEC; [1]", "result": "4.56 ± 0.2", "unit": "%"}, {"measurement": "percentage of EdU-negative", "setting": "hTERT-HMEC; [2]", "result": "6.7 ± 0.16", "unit": "%"}]}, {"sequence": "MKSVLLLTTLLVPAHLVAAWSNNYAVDCPQHCDSSECKSSPRCKRTVLDDCGCCRVCAAGRGETCYRTVSGMDGMKCGPGLRCQPSNGEDPFGEEFGICKDCPYGTFGMDCRETCNCQSGICDRGTGKCLKFPFFQYSVTKSSNRFVSLTEHDMASGDGNIVREEVVKENAAGSPVMRKWLNPR [Q9NQ30]", "values": [{"measurement": "percentage of EdU-negative", "setting": "MCF7; [3]", "result": "24.2 ± 1", "unit": "%"}, {"measurement": "percentage of EdU-negative", "setting": "MCF7; [4]", "result": "25.25 ± 0.057", "unit": "%"}, {"measurement": "percentage of EdU-negative", "setting": "hTERT-HMEC; [3]", "result": "4.84 ± 1.4", "unit": "%"}, {"measurement": "percentage of EdU-negative", "setting": "hTERT-HMEC; [4]", "result": "5.91 ± 0.64", "unit": "%"}]}, {"sequence": "MKTALILLSILGMACAFSMKNLHRRVKIEDSEENGVFKYRPRYYLYKHAYFYPHLKRFPVQGSSDSSEENGDDSSEEEEEEEETSNEGENNEESNEDEDSEAENTTLSATTLGYGEDATPGTGYTGLAAIQLPKKAGDITNKATKEKESDEEEEEEEEGNENEESEAEVDENEQGINGTSTNSTEAENGNGSSGGDNGEEGEEESVTGANAEDTTETGRQGKGTSKTTTSPNGGFEPTTPPQVYRTTSPPFGKTTTVEYEGEYEYTGANEYDNGYEIYESENGEPRGDNYRAYEDEYSYFKGQGYDGYDGQNYYHHQ", "values": [{"measurement": "percentage of EdU-negative", "setting": "MCF7; [5]", "result": "21.2 ± 2.7", "unit": "%"}, {"measurement": "percentage of EdU-negative", "setting": "MCF7; [6]", "result": "24.2 ± 2.1", "unit": "%"}, {"measurement": "percentage of EdU-negative", "setting": "hTERT-HMEC; [5]", "result": "5.184 ± 0.032", "unit": "%"}, {"measurement": "percentage of EdU-negative", "setting": "hTERT-HMEC; [6]", "result": "5.29 ± 1.4", "unit": "%"}]}, {"sequence": "MKTGHFEIVTMLLATMILVDIFQVKAEVLDMADNAFDDEYLKCTDRMEIKYVPQLLKEEKASHQQLDTVWENAKAKWAARKTQIFLPMNFKDNHGIALMAYISEAQEQTPFYHLFSEAVKMAGQSREDYIYGFQFKAFHFYLTRALQLLRKPCEASSKTVVYRTSQGTSFTFGGLNQARFGHFTLAYSAKPQAANDQLTVLSIYTCLGVDIENFLDKESERITLIPLNEVFQVSQEGAGNNLILQSINKTCSHYECAFLGGLKTENCIENLEYFQPIYVYNPGEKNQKLEDHSEKNWKLEDHGEKNQKLEDHGVKILEPTQIPGMKIPEPFPLPEDKSQGNINNPTPGPVPVPGPKSHPSASSGKLLLPQFGMVIILISVSAINLFVAL", "values": [{"measurement": "percentage of EdU-negative", "setting": "MCF7; [7]", "result": "24.99 ± 0.071", "unit": "%"}, {"measurement": "percentage of EdU-negative", "setting": "MCF7; protein concentration 0.225 µM", "result": "27.3 ± 1.4", "unit": "%"}, {"measurement": "percentage of EdU-negative", "setting": "hTERT-HMEC; [7]", "result": "4.51 ± 0.24", "unit": "%"}, {"measurement": "percentage of EdU-negative", "setting": "hTERT-HMEC; protein concentration 0.225 µM", "result": "5.22 ± 0.84", "unit": "%"}]}, {"sequence": "MKTLAGLVLGLVIFDAAVTAPTLESINYDSETYDATLEDLDNLYNYENIPVDKVEIEIATVMPSGNRELLTPPPQPEKAQEEEEEEESTPRLIDGSSPQEPEFTGVLGPHTNEDFPTCLLCTCISTTVYCDDHELDAIPPLPKNTAYFYSRFNRIKKINKNDFASLSDLKRIDLTSNLISEIDEDAFRKLPQLRELVLRDNKIRQLPELPTTLTFIDISNNRLGRKGIKQEAFKDMYDLHHLYLTDNNLDHIPLPLPENLRALHLQNNNILEMHEDTFCNVKNLTYIRKALEDIRLDGNPINLSKTPQAYMCLPRLPVGSLV", "values": [{"measurement": "percentage of EdU-negative", "setting": "MCF7; [8]", "result": "23.5 ± 1", "unit": "%"}, {"measurement": "percentage of EdU-negative", "setting": "MCF7; [9]", "result": "26.2 ± 2.6", "unit": "%"}, {"measurement": "percentage of EdU-negative", "setting": "hTERT-HMEC; [8]", "result": "4.4 ± 0.046", "unit": "%"}, {"measurement": "percentage of EdU-negative", "setting": "hTERT-HMEC; [9]", "result": "6.32 ± 0.2", "unit": "%"}]}, {"sequence": "MKTLFLGVTLGLAAALSFTLEEEDITGTWYVKAMVVDKDFPEDRRPRKVSPVKVTALGGGNLEATFTFMREDRCIQKKILMRKTEEPGKFSAYGGRKLIYLQELPGTDDYVFYCKDQRRGGLRYMGKLVGRNPNTNLEALEEFKKLVQHKGLSEEDIFMPLQTGSCVLEH [Q9NY56]", "values": [{"measurement": "percentage of EdU-negative", "setting": "MCF7; [10]", "result": "25.1 ± 0.74", "unit": "%"}, {"measurement": "percentage of EdU-negative", "setting": "MCF7; [11]", "result": "25.7 ± 0.44", "unit": "%"}, {"measurement": "percentage of EdU-negative", "setting": "hTERT-HMEC; [10]", "result": "5 ± 0.88", "unit": "%"}, {"measurement": "percentage of EdU-negative", "setting": "hTERT-HMEC; [11]", "result": "6.83 ± 0.95", "unit": "%"}]}, {"sequence": "MKTLLLLAVIMIFGLLQAHGNLVNFHRMIKLTTGKEAALSYGFYGCHCGVGGRGSPKDATDRCCVTHDCCYKRLEKRGCGTKFLSYKFSNSGSRITCAKQDSCRSQLCECDKAAATCFARNKTTYNKKYQYYSNKHCRGSTPRC", "values": [{"measurement": "percentage of EdU-negative", "setting": "MCF7; [12]", "result": "25.3 ± 2.7", "unit": "%"}, {"measurement": "percentage of EdU-negative", "setting": "MCF7; protein concentration 0.165 µM", "result": "29.2 ± 0.99", "unit": "%"}, {"measurement": "percentage of EdU-negative", "setting": "hTERT-HMEC; [12]", "result": "4.75 ± 0.11", "unit": "%"}, {"measurement": "percentage of EdU-negative", "setting": "hTERT-HMEC; protein concentration 0.165 µM", "result": "6.7 ± 0.9", "unit": "%"}]}, {"sequence": "MKTLQFFFLFCCWKAICCNSCELTNITIAIEKEECRFCISINTTWCAGYCYTRDLVYKDPARPKIQKTCTFKELVYETVRVPGCAHHADSLYTYPVATQCHCGKCDSDSTDCTVRGLGPSYCSFGEMKE", "values": [{"measurement": "percentage of EdU-negative", "setting": "MCF7; [10]", "result": "25.3 ± 0.9", "unit": "%"}, {"measurement": "percentage of EdU-negative", "setting": "MCF7; [11]", "result": "26.6 ± 1.5", "unit": "%"}, {"measurement": "percentage of EdU-negative", "setting": "hTERT-HMEC; [10]", "result": "5.26 ± 0.36", "unit": "%"}, {"measurement": "percentage of EdU-negative", "setting": "hTERT-HMEC; [11]", "result": "4.61 ± 0.34", "unit": "%"}]}]}
